Values belong to the sequence of their own block, whether it stands above or below them.
Experiments:
HLA-B*44:03 = experiment: IEDB peptide-MHC binding, purified MHC/competitive/radioactivity; filed as Kd, often an IC50 or EC50 that approximates it; ≥ and ≤ were set here for values at or beyond the usual limits of such assays
HLA-A*02:01 = experiment: IEDB peptide-MHC binding, purified MHC/competitive/fluorescence; ≥ and ≤ were set here for values at or beyond the usual limits of such assays
HLA-A*32:01 = experiment: IEDB peptide-MHC binding, purified MHC/competitive/radioactivity; filed as Kd, often an IC50 or EC50 that approximates it; ≥ and ≤ were set here for values at or beyond the usual limits of such assays
HLA-A*01:01 [1] = experiment: as above
HLA-A*23:01 = experiment: as above
HLA-A*24:02 = experiment: as above
HLA-A*26:01 = experiment: as above
HLA-A*29:02 = experiment: as above
HLA-A*30:02 = experiment: as above
HLA-B*44:02 = experiment: as above
HLA-B*40:01 = experiment: as above
HLA-A*03:01 = experiment: as above; details: source organism: SARS coronavirus Tor2
HLA-A*11:01 [2] = experiment: as above; details: source organism: SARS coronavirus Tor2
HLA-A*31:01 = experiment: as above; details: source organism: SARS coronavirus Tor2
HLA-A*33:01 = experiment: as above; details: source organism: SARS coronavirus Tor2
HLA-A*68:01 = experiment: as above; details: source organism: SARS coronavirus Tor2
HLA-A*01:01 [3] = experiment: IEDB peptide-MHC binding, purified MHC/direct/fluorescence; filed as Kd, often an IC50 or EC50 that approximates it; ≥ and ≤ were set here for values at or beyond the usual limits of such assays; details: source organism: Human immunodeficiency virus 1
HLA-A*11:01 [4] = experiment: as above; details: source organism: Human immunodeficiency virus 1
HLA-B*15:01 = experiment: as above; details: source organism: Human immunodeficiency virus 1
HLA-A*02:02 = experiment: IEDB peptide-MHC binding, purified MHC/competitive/radioactivity; filed as Kd, often an IC50 or EC50 that approximates it; ≥ and ≤ were set here for values at or beyond the usual limits of such assays; details: source organism: Vaccinia virus WR
HLA-A*02:03 = experiment: as above; details: source organism: Vaccinia virus WR
HLA-A*02:06 = experiment: as above; details: source organism: Vaccinia virus WR
[5] = source organism: Dengue virus 1 Brazil/97-11/1997
[6] = source organism: SARS coronavirus Tor2
[7] = source organism: Triticum aestivum
[8] = source organism: Dengue virus 2 Jamaica/1409/1983
[9] = source organism: Dengue virus 3 Martinique/1243/1999
[10] = source organism: Lymphocytic choriomeningitis virus (strain Armstrong)
[11] = source organism: Vaccinia virus WR
[12] = source organism: Zaire ebolavirus
[13] = source organism: Lassa virus GA391
[14] = source organism: Mammarenavirus machupoense

Sequence: MENKAWLVH
Kd (HLA-B*44:03; source organism: Dengue virus 2 16681-PDK53): 168 nM

Sequence: NELNHILLE
Kd (HLA-B*44:03; [5]): 15300 nM

Sequence: NLEDLIEWA
IC50 (HLA-A*02:01; source organism: Vaccinia virus): ≥ 137000 nM

Sequence: PNERRAWNSL
Kd (HLA-A*32:01; source organism: Dengue virus 4 Dominica/814669/1981): 1300 nM

Sequence: PVILSLPRI
IC50 (HLA-A*02:01; source organism: Variola virus): 1870 nM

Sequence: PVSIINNAVY
Kd (HLA-A*01:01 [1]; [6]): 10400 nM | Kd (HLA-A*23:01; [6]): ≥ 70000 nM | Kd (HLA-A*24:02; [6]): ≥ 70300 nM | Kd (HLA-A*26:01; [6]): 1580 nM | Kd (HLA-A*29:02; [6]): 101 nM | Kd (HLA-A*30:02; [6]): 601 nM

Kd (HLA-A*01:01 [1]; [7]): ≥ 78100 nM | Kd (HLA-A*23:01; [7]): 7750 nM | Kd (HLA-A*24:02; [7]): 206 nM | Kd (HLA-A*26:01; [7]): ≥ 77900 nM | Kd (HLA-A*29:02; [7]): 1470 nM | Kd (HLA-A*30:02; [7]): 831 nM
Sequence: QFLGQQQPF

Sequence: REDQWCGSLI
Kd (HLA-B*44:02; [8]): 373 nM | Kd (HLA-B*44:03; [8]): 888 nM

Sequence: RENLLLGVGL
Kd (HLA-B*40:01; [9]): 2.47 nM | Kd (HLA-B*44:02; [9]): 21.4 nM | Kd (HLA-B*44:03; [9]): 292 nM

Sequence: RLGYILEDI
Kd (HLA-A*32:01; source organism: Dengue virus 4 Philippines/H241/1956): 7180 nM

Sequence: RYQVVECKEV
Kd (HLA-A*01:01 [1]; [10]): ≥ 70400 nM | Kd (HLA-A*23:01; [10]): ≥ 70000 nM | Kd (HLA-A*24:02; [10]): ≥ 70300 nM | Kd (HLA-A*26:01; [10]): ≥ 69700 nM | Kd (HLA-A*29:02; [10]): ≥ 71400 nM | Kd (HLA-A*30:02; [10]): 159 nM

Sequence: SIINSNVTW
Kd (HLA-A*32:01; source organism: Vaccinia virus L-IPV): 11.1 nM

Sequence: SKGWHDWQQV
Kd (HLA-A*32:01; [9]): 1400 nM

Sequence: STMDVNHPI
Kd (HLA-A*32:01; [11]): 7.42 nM

Sequence: TESHNQTFL
Kd (HLA-B*40:01; [8]): 16.3 nM

Sequence: TKIDSMFLM
IC50 (HLA-A*02:01; source organism: Variola virus): 38000 nM

Sequence: TNSVIIMAY
Kd (HLA-A*01:01 [1]; [6]): ≥ 25800 nM | Kd (HLA-A*23:01; [6]): ≥ 77800 nM | Kd (HLA-A*24:02; [6]): ≥ 77600 nM | Kd (HLA-A*26:01; [6]): 17300 nM | Kd (HLA-A*29:02; [6]): 84.5 nM | Kd (HLA-A*30:02; [6]): 2120 nM

Sequence: TTFAEGVVA
IC50 (HLA-A*02:01; [12]): 50200 nM

Sequence: TVAYFNMVY
Kd (HLA-A*01:01 [1]; [6]): 123 nM | Kd (HLA-A*03:01): 41.3 nM | Kd (HLA-A*11:01 [2]): 60.5 nM | Kd (HLA-A*23:01; [6]): 14100 nM | Kd (HLA-A*24:02; [6]): 11000 nM | Kd (HLA-A*26:01; [6]): 14.2 nM | Kd (HLA-A*29:02; [6]): 3.81 nM | Kd (HLA-A*30:02; [6]): 71 nM | Kd (HLA-A*31:01): ≥ 56900 nM | Kd (HLA-A*33:01): ≥ 52000 nM | Kd (HLA-A*68:01): 75.9 nM

Sequence: TVLDVGDAY
Kd (HLA-A*01:01 [3]): 10200 nM | Kd (HLA-A*11:01 [4]): 436 nM | Kd (HLA-B*15:01): 170 nM

Sequence: VELPNSLEEL
Kd (HLA-B*40:01; [5]): 29.2 nM

Sequence: VFHLYLQYI
Kd (HLA-A*01:01 [1]; [6]): 198 nM | Kd (HLA-A*23:01; [6]): 566 nM | Kd (HLA-A*24:02; [6]): 1090 nM | Kd (HLA-A*26:01; [6]): 90.7 nM | Kd (HLA-A*29:02; [6]): ≥ 71400 nM | Kd (HLA-A*30:02; [6]): ≥ 125000 nM

Sequence: VFNGTSWFI
Kd (HLA-A*01:01 [1]; [6]): ≥ 78100 nM | Kd (HLA-A*23:01; [6]): ≥ 77800 nM | Kd (HLA-A*24:02; [6]): ≥ 107000 nM | Kd (HLA-A*26:01; [6]): ≥ 77900 nM | Kd (HLA-A*29:02; [6]): ≥ 45400 nM | Kd (HLA-A*30:02; [6]): ≥ 93800 nM

Sequence: VFRTSTPKVV
Kd (HLA-A*01:01 [1]; [13]): ≥ 70400 nM | Kd (HLA-A*23:01; [13]): ≥ 70000 nM | Kd (HLA-A*24:02; [13]): ≥ 70300 nM | Kd (HLA-A*26:01; [13]): ≥ 69700 nM | Kd (HLA-A*29:02; [13]): ≥ 71400 nM | Kd (HLA-A*30:02; [13]): ≥ 69700 nM

Sequence: VIPVYQVNN
IC50 (HLA-A*02:01; [12]): ≥ 340000 nM

Sequence: VISNSVAQA
IC50 (HLA-A*02:01; [12]): 5790 nM

Sequence: VMYAFTTPL
Kd (HLA-A*02:02): 0.573 nM | Kd (HLA-A*02:03): 1.28 nM | Kd (HLA-A*02:06): 5.71 nM | Kd (HLA-A*32:01; [11]): 0.291 nM

Sequence: VTLRKERLA
IC50 (HLA-A*02:01; [12]): ≥ 360000 nM

Sequence: WIEFTNFKV
Kd (HLA-A*01:01 [1]; [14]): ≥ 78100 nM | Kd (HLA-A*23:01; [14]): ≥ 77700 nM | Kd (HLA-A*24:02; [14]): ≥ 77500 nM | Kd (HLA-A*26:01; [14]): ≥ 77900 nM | Kd (HLA-A*29:02; [14]): 8070 nM | Kd (HLA-A*30:02; [14]): ≥ 49900 nM

Source: the Immune Epitope Database (IEDB)
